Patent US20110171312A1, “MODIFIED THERAPEUTIC PEPTIDES, METHODS OF THEIR PREPARATION AND USE” (Nektar Therapeutics, priority 2008, published 2011)
Where two headings read alike, the source gives them in different places.

Columns and labels:
[1] = Quick release test of releasable PEG-insulin conjugate; type: physicochemical; details: 100 mM HEPES, pH 8.66, 50° C., approximately 24 hours; gel electrophoresis
Method: The pH was adjusted to 8.66 with 11.0 μL 2 M NaOH. Incubated solution at 50° C. for approximately 24 hours. […] This is slightly lower than the theoretical content of 22.5%. […] Peptide mapping was performed to determine which residue on insulin was modified. […] The purity of the conjugate was 91% mono-conjugate as determined by reverse phase HPLC.

beagle dogs [2] = test: PK/PD after IH (powder inhalation) dosing in dogs (Example 26); details: for Effect/mg Dosed: AUEC per mg of IH lung dose; for Effect (Glucose Suppression AUEC): lung dose 0.34, 0.6, 2 mg
Method: (§1) The compounds were prepared in accordance with Examples 16 and 18.
(§2) 6 Beagle dogs (˜7-10 kg) were anesthetized in both the IV and IH arms of this study for consistency. Dogs were then given 0.1 mg/kg acepromazine subcutaneously ˜15 minutes prior to 1-5% isoflurane mask induction. Once the appropriate plane of anesthesia was achieved, the pre-shaved neck of the dog was installed with an 18-20 G Abbocath intravenous catheter in the right or left jugular vein and pre-dose sampling was taken. This catheter was used for all blood samplings other than the later time points (16, 20 and 24 hour). Subsequent samples were taken from the cephalic veins.
The formulated control and test articles were delivered by inhalation (IH) via an endotracheal (ET) tube. Ventilator stroke volume was set empirically for each dog to achieve a Peak Mouth Pressure (PMP) of 20-25 cm H2O. A digital manometer (Dwyer Instruments, Michigan City, Ind.) was connected to the ET tube/“Y” connector to monitor PMP. Each blister pack (BP) was delivered with 2 full breathing cycles. No more than 3 BPs were administered during one apneic period. If required to achieve the target administered dose, a second apneic period was induced after an interval of 2 minutes of spontaneous breathing.
Total administered powder as well as estimated inhaled total lung dose were reported.
(§3) Whole blood was used for the glucose measurements. EDTA-anticoagulated plasma was used for compound quantitation assays.
(§4) Quantitation of test and control articles for PK analysis was made with a radio-immuno assay (RIA) conducted at Linco Research, St-Charles, Mo. […] This antiserum was used as the basis of an RIA assay which was then qualified with respect to accuracy, precision, sensitivity, and dilutional linearity. The working range of this assay was 0.15-5 ng/ml. Samples exceeding the upper boundary of this range were diluted in a pool of charcoal-stripped canine plasma.
To calculate the overall glucose suppression, glucose levels were normalized by the equation:
GlucoseSuppression(t)=PredoseGlucoseConcentration−Glucose(t)
The glucose suppression-time profiles were integrated using linear-trapezoidal rule to calculate the area under the effect curve (AUEC).

beagle dogs [3] = details: glucose clamp, powder inhalation (FIG. 13a)
Method: The glucose clamp technique involved the continuous infusion of a 50% glucose solution at a rate such that normal serum glucose values were maintained throughout the experiment (e.g., normal range is 80-100 mg/dl).
Glucagon was also infused to maintain normal serum physiologic concentrations. […] Blood was withdrawn from an indwelling catheter over a 10-hour period.

beagle dogs [4] = test: PK/PD after IV dosing in dogs (Example 26); details: for CMAX: baseline corrected
Method: as §1, §2
The test and control articles were administered by bolus intravenous (IV) injection of a volume of 300 μl into the left cephalic vein using a 22 G 1 inch 1 mL tuberculin syringe.
as §3, §4

[5] = 100 mM acetic acid
Sprague-Dawley rats [6] = details: rats, intravenous
Text: The first phase established a dose of the compound required to achieve a target blood glucose reduction. This target blood glucose reduction was chosen to be the minimum reduction that is clearly recognizable as different from the resting blood glucose concentration.
The second phase examined the pharmacokinetics/pharmacodynamics of the molecule when administered to rats at the selected dose over an observation time sufficient for the glucose to return to baseline.
These experiments were conducted on male adult Sprague-Dawley rats of approximately 0.30-0.40 kg. Animals were obtained pre-cannulated with a jugular vein catheter (JVC) for blood sampling and, in the case of IV administration, and additional femoral vein catheter (FVC).
Intravenous administration of compounds was made via a femoral catheter in a volume of 300 μl.
Sample Collection was performed as follows. Blood samples of approximately 0.50 mL were collected from the JVC using a 1 mL syringe at each time point. A new syringe was used for each time point along with precautions to prevent contamination and carry-over.
The glucose monitoring was conducted as follows. Approximately 20 μL of whole blood was touched to the end of the glucose test strip of 2 Glucometer Elite glucose monitors for a duplicate determination of blood glucose concentrations. If there was a discrepancy of greater than 5 mg/dl, a third reading was taken.
The sample for compound quantitation in plasma, which served as basis for the PK analysis, was collected and processed as follows. The volume of blood remaining after the glucose measurement (˜480 μL) was anticoagulated with K2 EDTA and centrifuged to recover plasma. The plasma was collected and stored at −80° C. until analysis.

[7] = 14.3/(14.3 + 0.2) * 100%
Method: Concentrations of collected samples were determined using UV spectroscopy, while the integrity analysis of the collected protein was evaluated by HPLC.

Sprague-Dawley rats [8] = test: Dose determination and PK/PD after intratracheal instillation (Example 25); type: in vivo, rat; details: intratracheal
Method: A spectrometric measurement of compound concentration was also made.
Intratracheal Instillation (IT) was conducted as follows.
Sample Collection was performed as follows.
The glucose monitoring was conducted as follows.
The experimental protocol was modified for the analysis of the acetylated compounds. This resulted from the intent to use LC/MS-MS for the quantitation of compound concentrations in plasma. This analytical technique requires a larger volume of plasma to permit concentration of the sample and achieve the requisite increase in sensitivity. […] The protocol was therefore modified to increase the number of animals by two-fold and split the samples between these two cohorts.
To explore the data further, the PK profiles after IT doses were deconvoluted using IV PK parameters using the Wagner Nelson deconvolution procedure, to generate the cumulative absorption profile (FIG. 32).

[9] = dogs, IV, insulin 0.027, 2K 0.058, 5K 0.084 mg/dog, mean
[10] = dog, in vivo, inhaled or intranasal

Substance: G2-PEG2-FMOC-NHS 40K insulin: Example 21: releasable mono-conjugate of insulin with G2-PEG2-FMOC-NHS 40K, site specific (B1)
- release of insulin from the PEG [1]: Complete release

Substance: Insulin: unmodified human insulin used as control and starting material [reference compound]
- time of last quantifiable sample (beagle dogs [2]; dogs, IH, 0.34 mg/dog): 2 h
- Effect/mg Dosed (beagle dogs [2]; dogs, IH): 156
- Effect (Glucose Suppression AUEC) (beagle dogs [2]; dogs, IH): 53
- AUC0-LAST (beagle dogs [2]; dogs, IH, lung dose insulin 0.34, 2K 0.60, 5K 2.0 mg/dog, mean): 1.538 ng·h/mL
- CMAX (beagle dogs [2]; dogs, IH, lung dose insulin 0.34, 2K 0.60, 5K 2.0 mg/dog, mean, baseline corrected): 1.567 ng/mL
- calculated IH bioavailability (beagle dogs [2]; dogs, powder after the ET tube, relative to IV): about 6%
- duration for which glucose infusion was necessary (beagle dogs [3]): 300 min
- AUC0-LAST (beagle dogs [4]; [9]): 1.822 ng·h/mL
- CMAX (beagle dogs [4]; [9]): 9.1 ng/mL
- CMAX (beagle dogs [4]; dogs, IV, insulin 0.027, 2K 0.058, 5K 0.084 mg/dog, mean, listed as INSULIN): 9.117 ng/mL
- solubility ([5]; pH 4): ~5000 µg/mL
- solubility ([5]; pH 4, listed as insulin): up to 5 mg/ml
- solubility ([5]; pH 5): less than 1 mg/ml

Substance: di-N^αA1,N^εB29-(acetyl)-N^αB1-{3-[methoxy(ethoxy)5K]propionyl}insulin [PEG5000-B1 Di-acetylated insulin]
- dose adequate to reduce blood glucose to the target (40-60 mg/dl) (Sprague-Dawley rats [6]; insulin mass): 20 μg/rat
- group mean Cmin (blood glucose nadir), definitive leg (Sprague-Dawley rats [6]; 20 μg/rat (5K di-acetylated), 10 μg/rat (2K di-acetylated)): 54 mg/dL
- T1/2 (beagle dogs [2]; dog, in vivo): about 15 HR
- T1/2, range across dogs (beagle dogs [2]; dog, in vivo): 6.6 to 51 h
- TMAX (beagle dogs [2]; dog, in vivo): about 2.5 HR
- Tmax, range across dogs (beagle dogs [2]; dog, in vivo): 1 to 8 h
- T1/2 (beagle dogs [2]; [10]): 15.045 h
- calculated IH bioavailability (beagle dogs [2]; [10]): about 36%
- duration of glucose suppression versus Insulin (beagle dogs [2]; dogs, IH): significantly increased
- Effect/mg Dosed (beagle dogs [2]; dogs, IH): 179
- Effect (Glucose Suppression AUEC) (beagle dogs [2]; dogs, IH): 358
- % Collected as aerosol [7]: 98%^1
- T1/2 (beagle dogs [4]; beagle, dog, in vivo, iv): 0.755 h
- T1/2 (beagle dogs [4]; dog, in vivo, iv): about 0.76 HR
- TMAX (beagle dogs [4]; dog, in vivo, iv): 4.8 min
- central volume of distribution (Vc) (beagle dogs [4]; dog, in vivo, iv): about 115 mL/kg
- overall glucose suppression versus Insulin (beagle dogs [4]; dogs, IV): overall glucose suppressions were similar in terms of maximum suppression and duration of action
- Cmin (minimum blood glucose concentration) (Sprague-Dawley rats [8]; 520 μg/animal (Table 7)): 58 ± 11 mg/dL
- Tmin (time to Cmin) (Sprague-Dawley rats [8]; 520 μg/animal (Table 7)): 7.1 ± 6.6 h
- time up to which blood glucose is still suppressed (not back to baseline) (Sprague-Dawley rats [8]; selected dose): at least 12 hrs
